From patent EP1137786B1 come the findings set out here.

Experiment [1] concerns the target CCR5 (UniProt P51681). Briefly: cell-based or functional assay.
Another experiment has as its target CXCR4 (UniProt P61073). Kind of experiment: cell-based or functional assay.
Experiment [2] concerns the target CCR5 (UniProt P51681). Kind of experiment: flow cytometry on L1.2/R5 cells. (In general: In flow cytometry, cells or beads pass a laser one at a time.)

Chain of CXCR4 (P61073 whole entry): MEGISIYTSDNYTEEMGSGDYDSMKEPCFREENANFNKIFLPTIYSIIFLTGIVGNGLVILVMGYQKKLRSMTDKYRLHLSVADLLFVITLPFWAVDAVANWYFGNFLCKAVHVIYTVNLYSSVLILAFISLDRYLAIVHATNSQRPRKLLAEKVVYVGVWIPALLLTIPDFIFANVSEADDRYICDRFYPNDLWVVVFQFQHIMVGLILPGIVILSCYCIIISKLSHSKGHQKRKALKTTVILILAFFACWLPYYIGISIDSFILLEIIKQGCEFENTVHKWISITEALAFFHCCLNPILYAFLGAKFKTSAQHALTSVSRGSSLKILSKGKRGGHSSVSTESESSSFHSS
Chain of CCR5 (P51681 whole entry): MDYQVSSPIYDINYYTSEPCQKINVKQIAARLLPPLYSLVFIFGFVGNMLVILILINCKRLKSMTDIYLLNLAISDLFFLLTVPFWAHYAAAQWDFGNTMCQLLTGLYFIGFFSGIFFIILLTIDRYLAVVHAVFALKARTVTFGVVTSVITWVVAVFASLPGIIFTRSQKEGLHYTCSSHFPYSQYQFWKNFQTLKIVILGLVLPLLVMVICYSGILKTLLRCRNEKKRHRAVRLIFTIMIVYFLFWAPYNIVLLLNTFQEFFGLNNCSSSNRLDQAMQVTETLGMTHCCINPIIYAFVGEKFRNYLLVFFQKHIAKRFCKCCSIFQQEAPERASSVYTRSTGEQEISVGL

On to “gp120-CD4-IgG1 chimeric polypeptide (from UniProt P01730 26-208) (Fc fusion)”, for which, in the experiment with CCR5 [1], the ID90, neutralization of HIV 89.6 on U373/CD4/CCR5 cells was 3.56 µg/mL; the ID90, neutralization of HIV ADA on U373/CD4/CCR5 cells stood at 4.58 µg/mL; the ID90, neutralization of HIV BaL on U373/CD4/CCR5 cells turned out to be 3.1 µg/mL. In the experiment with CXCR4, this substance had an ID90, neutralization of HIV 89.6 on U373/CD4/CXCR4 cells of more than 10 µg/mL; an ID90, neutralization of HIV 2005 on U373/CD4/CXCR4 cells of more than 10 µg/mL; an ID90, neutralization of HIV 2044 on U373/CD4/CXCR4 cells of more than 10 µg/mL.
In the experiment with CCR5 [2], “truncated single chain (TcSC) gp120-CD4 chimeric polypeptide (from UniProt P01730 26-208)” gave a fold higher concentration needed to approach saturation binding, against FLSC of 10 fold.
